From publication PMC5811392 (Biochemistry, 2018)

How the values were obtained:
[1] = biological target: T1, Human p53 DNA-binding domain (residues 88-312) (human, UniProt P04637 88-312); assay: NMR titration
[2] = biological target: T1, Human p53 DNA-binding domain (residues …); assay: ITC
[3] = biological target: T1, Human p53 DNA-binding domain (residues …); assay: fluorescence polarisation

T1 sequence (P04637 88-312): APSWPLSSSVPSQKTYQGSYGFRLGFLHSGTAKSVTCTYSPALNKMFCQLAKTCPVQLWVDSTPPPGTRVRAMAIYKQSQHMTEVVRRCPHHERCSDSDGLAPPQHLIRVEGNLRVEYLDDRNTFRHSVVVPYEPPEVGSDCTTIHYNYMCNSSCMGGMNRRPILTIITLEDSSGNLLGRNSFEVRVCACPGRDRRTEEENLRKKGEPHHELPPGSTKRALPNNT

| Kd [1] [µM] | Kd [2] [µM] | dH [2] [kJ/mol] | Kd [3] [µM] | Binder |
| --- | --- | --- | --- | --- |
| 6 ± 4 | – | – | – | GB1-p23 (110-160) (domain or fragment, human, UniProt Q15185 110-160, looked up) EDDSDEDMSNFDRFSEMMNNMGGDEDVDLPEVDGADDDSQDSDDEKMPDLE |
| 8 ± 2 | 7 ± 2 | -7.95 ± 418 | 21 ± 7 | full length p23 (residues 1-160) (natural protein, human, UniProt Q15185 1-160, looked up) MQPASAKWYDRRDYVFIEFCVEDSKDVNVNFEKSKLTFSCLGGSDNFKHLNEIDLFHCIDPNDSKHKRTDRSILCCLRKGESGQSWPRLTKERAKLNWLSVDFNNWKDWEDDSDEDMSNFDRFSEMMNNMGGDEDVDLPEVDGADDDSQDSDDEKMPDLE |
| – | 24 ± 15 | – | – | FDRFSEMMNNMGGDEDVDLPEVDGADDDSQDSDDEKMPDLE (domain or fragment, human, UniProt Q15185 120-160, looked up) [GB1-p23 (120-160)] |
